Results taken from the supplement of paper PMC10065799, “High-throughput profiling of sequence recognition by tyrosine kinases and SH2 domains using bacterial peptide display” (eLife, 2023).

Legend:
AncSZ = experiment: phosphorylation enrichment, bacterial display (enrichment ratio); higher = better substrate or ligand; peptides without Tyr show the background
MERTK = MERTK (UniProt Q12866); experiment: as above
FGFR1 = FGFR1 (UniProt P11362); experiment: as above
Fyn = Fyn (UniProt P06241); experiment: as above
Chain of Fyn (P06241 whole entry, looked up): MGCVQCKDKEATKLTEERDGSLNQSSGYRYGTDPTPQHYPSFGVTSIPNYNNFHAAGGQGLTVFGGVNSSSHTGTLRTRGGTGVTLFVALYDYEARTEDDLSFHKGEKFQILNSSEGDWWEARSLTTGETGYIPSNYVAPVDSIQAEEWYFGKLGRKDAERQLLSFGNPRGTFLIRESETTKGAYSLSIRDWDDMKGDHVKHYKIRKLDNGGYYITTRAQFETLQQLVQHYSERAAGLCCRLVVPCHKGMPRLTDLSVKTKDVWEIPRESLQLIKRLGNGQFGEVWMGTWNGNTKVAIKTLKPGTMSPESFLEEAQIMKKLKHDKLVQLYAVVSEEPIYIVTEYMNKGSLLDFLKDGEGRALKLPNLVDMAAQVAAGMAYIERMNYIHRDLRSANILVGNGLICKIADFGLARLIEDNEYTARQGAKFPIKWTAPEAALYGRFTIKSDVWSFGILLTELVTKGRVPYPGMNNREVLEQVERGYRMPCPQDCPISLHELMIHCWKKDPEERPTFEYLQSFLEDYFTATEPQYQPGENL

c-Src = experiment: as above
EPHB1 = EPHB1 (UniProt P54762); experiment: as above
Chain of EPHB1 (P54762 whole entry, looked up): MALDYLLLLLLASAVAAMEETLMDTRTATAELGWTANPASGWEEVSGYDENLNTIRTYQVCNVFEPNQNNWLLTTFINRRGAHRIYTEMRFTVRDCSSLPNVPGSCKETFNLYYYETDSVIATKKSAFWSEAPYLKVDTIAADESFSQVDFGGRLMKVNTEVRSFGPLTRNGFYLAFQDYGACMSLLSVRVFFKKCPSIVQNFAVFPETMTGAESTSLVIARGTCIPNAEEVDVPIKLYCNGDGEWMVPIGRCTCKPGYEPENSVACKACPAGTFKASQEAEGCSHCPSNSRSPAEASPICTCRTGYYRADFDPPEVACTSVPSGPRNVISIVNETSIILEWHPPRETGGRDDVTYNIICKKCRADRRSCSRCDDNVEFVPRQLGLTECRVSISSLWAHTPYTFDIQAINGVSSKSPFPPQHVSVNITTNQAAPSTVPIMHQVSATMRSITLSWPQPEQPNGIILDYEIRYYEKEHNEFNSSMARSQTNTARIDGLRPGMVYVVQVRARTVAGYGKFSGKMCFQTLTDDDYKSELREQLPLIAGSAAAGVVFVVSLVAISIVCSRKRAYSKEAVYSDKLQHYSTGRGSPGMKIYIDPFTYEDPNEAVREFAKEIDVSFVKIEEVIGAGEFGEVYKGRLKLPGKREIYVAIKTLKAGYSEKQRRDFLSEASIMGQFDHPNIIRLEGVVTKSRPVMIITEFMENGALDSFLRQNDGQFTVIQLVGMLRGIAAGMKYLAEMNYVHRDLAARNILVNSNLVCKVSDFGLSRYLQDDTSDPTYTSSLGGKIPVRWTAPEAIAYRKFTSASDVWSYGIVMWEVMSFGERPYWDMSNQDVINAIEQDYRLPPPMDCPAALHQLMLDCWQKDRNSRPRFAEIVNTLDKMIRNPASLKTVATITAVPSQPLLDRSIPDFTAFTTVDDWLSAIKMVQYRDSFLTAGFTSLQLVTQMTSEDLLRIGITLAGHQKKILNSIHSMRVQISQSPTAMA

c-Abl (mouse) = experiment: as above
EPHB2 = EPHB2 (UniProt P29323); experiment: as above
Fes = Fes (UniProt P07332); experiment: as above
Hck = Hck (UniProt P08631); experiment: as above
Fer (mouse) = experiment: as above
FGFR3 = FGFR3 (UniProt P22607); experiment: as above
Chain of FGFR3 (P22607 whole entry, looked up): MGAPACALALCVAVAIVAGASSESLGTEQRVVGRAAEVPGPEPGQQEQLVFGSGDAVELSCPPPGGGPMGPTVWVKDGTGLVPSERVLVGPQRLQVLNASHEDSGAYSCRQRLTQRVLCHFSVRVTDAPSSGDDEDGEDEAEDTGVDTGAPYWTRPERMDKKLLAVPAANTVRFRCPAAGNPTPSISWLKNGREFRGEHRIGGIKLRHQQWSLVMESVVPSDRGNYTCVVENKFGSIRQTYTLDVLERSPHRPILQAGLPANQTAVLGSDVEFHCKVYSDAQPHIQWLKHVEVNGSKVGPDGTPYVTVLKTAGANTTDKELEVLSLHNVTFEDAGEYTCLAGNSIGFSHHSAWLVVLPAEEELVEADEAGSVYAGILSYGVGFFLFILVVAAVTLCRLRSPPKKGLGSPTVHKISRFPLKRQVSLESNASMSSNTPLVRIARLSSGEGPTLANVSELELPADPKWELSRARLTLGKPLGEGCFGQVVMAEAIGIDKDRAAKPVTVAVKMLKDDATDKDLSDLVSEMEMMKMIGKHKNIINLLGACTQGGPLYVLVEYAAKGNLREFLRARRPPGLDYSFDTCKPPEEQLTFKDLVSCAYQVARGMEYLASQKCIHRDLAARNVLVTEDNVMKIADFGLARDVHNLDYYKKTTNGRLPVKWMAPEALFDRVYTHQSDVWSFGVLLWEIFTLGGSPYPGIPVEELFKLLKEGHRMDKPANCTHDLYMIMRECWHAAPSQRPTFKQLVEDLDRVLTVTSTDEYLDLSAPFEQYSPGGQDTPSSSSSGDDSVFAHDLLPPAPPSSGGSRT

Jak2 = Jak2 (UniProt O60674); experiment: as above
Chain of Jak2 (O60674 whole entry, looked up): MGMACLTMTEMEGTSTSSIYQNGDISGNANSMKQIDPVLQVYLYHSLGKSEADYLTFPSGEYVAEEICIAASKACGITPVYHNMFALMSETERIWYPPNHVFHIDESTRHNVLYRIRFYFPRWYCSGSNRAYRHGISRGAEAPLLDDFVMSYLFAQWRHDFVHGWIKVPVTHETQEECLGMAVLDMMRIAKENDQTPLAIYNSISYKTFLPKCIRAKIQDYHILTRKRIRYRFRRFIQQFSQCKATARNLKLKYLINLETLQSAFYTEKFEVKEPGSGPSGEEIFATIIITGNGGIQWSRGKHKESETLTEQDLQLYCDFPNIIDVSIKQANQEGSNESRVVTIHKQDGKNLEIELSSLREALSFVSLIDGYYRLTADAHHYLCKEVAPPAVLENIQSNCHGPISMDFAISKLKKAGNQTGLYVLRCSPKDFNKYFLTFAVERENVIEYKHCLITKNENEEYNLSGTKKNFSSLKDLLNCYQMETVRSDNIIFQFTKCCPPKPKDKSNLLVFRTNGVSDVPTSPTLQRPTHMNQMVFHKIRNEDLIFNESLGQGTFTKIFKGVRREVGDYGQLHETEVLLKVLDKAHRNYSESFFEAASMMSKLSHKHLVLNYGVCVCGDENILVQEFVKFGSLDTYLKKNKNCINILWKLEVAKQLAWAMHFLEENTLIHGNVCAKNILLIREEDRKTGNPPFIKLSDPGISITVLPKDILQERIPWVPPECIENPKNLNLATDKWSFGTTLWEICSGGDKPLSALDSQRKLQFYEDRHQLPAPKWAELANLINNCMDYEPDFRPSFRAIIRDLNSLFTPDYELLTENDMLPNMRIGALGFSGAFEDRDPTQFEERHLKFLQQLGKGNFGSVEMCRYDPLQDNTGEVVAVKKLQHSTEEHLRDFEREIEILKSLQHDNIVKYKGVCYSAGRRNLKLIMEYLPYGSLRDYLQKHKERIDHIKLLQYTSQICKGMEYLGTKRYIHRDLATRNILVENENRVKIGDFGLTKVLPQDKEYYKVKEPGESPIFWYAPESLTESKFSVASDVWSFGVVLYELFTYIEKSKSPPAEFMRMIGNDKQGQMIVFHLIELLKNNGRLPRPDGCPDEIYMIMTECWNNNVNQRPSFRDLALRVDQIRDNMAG

Grb2 SH2 = Grb2 SH2 (UniProt P62993); experiment: SH2 binding enrichment of the phosphorylated peptide, bacterial display (enrichment ratio); higher = better substrate or ligand; peptides without Tyr show the background
Chain of Grb2 SH2 (P62993 whole entry, looked up): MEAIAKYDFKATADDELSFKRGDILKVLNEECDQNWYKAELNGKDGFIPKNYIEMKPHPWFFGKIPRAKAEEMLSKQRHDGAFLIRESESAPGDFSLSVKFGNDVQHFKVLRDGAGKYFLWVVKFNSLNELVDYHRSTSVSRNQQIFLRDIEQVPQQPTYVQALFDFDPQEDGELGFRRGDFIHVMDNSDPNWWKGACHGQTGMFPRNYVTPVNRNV

SHP2-C SH2 = experiment: as above
c-Src SH2 = experiment: as above
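Throughout, for SH2 binding enrichment of the phosphorylated peptide, bacterial display: peptide library displayed on the E. coli surface as eCPX fusions, selected cells deep-sequenced, score is each peptide's frequency after selection divided by its frequency in the input.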
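Throughout, for phosphorylation enrichment, bacterial display: 11-residue human phosphosite peptides and single-mutation variants displayed on the E. coli surface, counted by deep sequencing, each peptide's frequency after selection divided by its frequency in the unselected input library; frequency after pTyr selection over input frequency; kinase dosed for 20-30% of maximal phosphorylation in three min.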

Chain of MERTK (Q12866 whole entry, looked up): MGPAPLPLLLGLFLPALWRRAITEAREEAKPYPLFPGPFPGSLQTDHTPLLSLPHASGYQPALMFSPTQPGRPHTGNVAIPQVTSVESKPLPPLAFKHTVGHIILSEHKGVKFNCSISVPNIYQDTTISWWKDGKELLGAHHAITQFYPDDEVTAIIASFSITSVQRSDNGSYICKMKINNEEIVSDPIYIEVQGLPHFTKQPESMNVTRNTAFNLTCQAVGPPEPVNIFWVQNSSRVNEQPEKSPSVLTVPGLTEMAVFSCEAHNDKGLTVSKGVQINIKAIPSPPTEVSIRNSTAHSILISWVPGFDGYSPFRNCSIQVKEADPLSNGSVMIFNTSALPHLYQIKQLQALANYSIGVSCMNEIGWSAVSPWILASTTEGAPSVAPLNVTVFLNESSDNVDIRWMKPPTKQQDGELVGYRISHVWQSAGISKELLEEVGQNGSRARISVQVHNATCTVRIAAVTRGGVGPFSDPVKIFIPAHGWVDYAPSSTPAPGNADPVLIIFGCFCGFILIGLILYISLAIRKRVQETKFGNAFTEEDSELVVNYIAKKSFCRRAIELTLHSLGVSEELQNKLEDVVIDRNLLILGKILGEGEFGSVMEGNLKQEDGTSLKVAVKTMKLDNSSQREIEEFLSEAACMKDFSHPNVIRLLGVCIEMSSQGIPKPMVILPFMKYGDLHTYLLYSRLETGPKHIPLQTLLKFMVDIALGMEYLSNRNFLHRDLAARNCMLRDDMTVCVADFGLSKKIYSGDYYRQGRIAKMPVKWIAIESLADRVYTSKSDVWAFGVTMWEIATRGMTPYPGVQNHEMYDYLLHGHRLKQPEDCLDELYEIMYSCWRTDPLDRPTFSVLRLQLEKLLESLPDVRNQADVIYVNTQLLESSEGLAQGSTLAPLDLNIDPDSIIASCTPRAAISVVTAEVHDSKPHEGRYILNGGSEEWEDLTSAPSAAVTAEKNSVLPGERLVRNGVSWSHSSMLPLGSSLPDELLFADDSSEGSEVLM

| Sequence | phosphorylation enrichment (AncSZ) | phosphorylation enrichment (MERTK) | phosphorylation enrichment (FGFR1) | phosphorylation enrichment (Fyn) | phosphorylation enrichment (c-Src) | phosphorylation enrichment (EPHB1) | phosphorylation enrichment (c-Abl (mouse)) | phosphorylation enrichment (EPHB2) | phosphorylation enrichment (Fes) | phosphorylation enrichment (Hck) | phosphorylation enrichment (Fer (mouse)) | phosphorylation enrichment (FGFR3) | phosphorylation enrichment (Jak2) | SH2 binding enrichment (Grb2 SH2) | SH2 binding enrichment (SHP2-C SH2) | SH2 binding enrichment (c-Src SH2) |
| --- | --- | --- | --- | --- | --- | --- | --- | --- | --- | --- | --- | --- | --- | --- | --- | --- |
| GFDHSYFFIAT [ESD_Y262_YF] | 1.52 | 0.67 | 7.11 | 0.525 | 0.558 | 0.63 | 1.15 | 0.603 | 1.28 | 0.626 | 0.589 | 5.72 | 5.69 | 0.813 | 0.697 | 0.621 |
| PIQLFYTRRNT [GHR_Y86] | 1.18 | 0.691 | 0.982 | 0.938 | 0.919 | 0.766 | 0.738 | 0.775 | 1.13 | 0.957 | 0.913 | 0.884 | 0.713 | 0.74 | 0.594 | 0.492 |
| RFVTRSIFNRE [HLA-DQB1_Y62_Y62S_YF] | 1.14 | 0.577 | 0.472 | 0.498 | 0.578 | 0.61 | 0.402 | 0.718 | 0.827 | 0.632 | 0.652 | 0.711 | 0.723 | 0.72 | 0.588 | 0.39 |
